In article PMC6433275 (Nature structural & molecular biology, 2019):

Target: T1, E. coli MukB (E. coli, UniProt P22523 1-1486)
T1 sequence: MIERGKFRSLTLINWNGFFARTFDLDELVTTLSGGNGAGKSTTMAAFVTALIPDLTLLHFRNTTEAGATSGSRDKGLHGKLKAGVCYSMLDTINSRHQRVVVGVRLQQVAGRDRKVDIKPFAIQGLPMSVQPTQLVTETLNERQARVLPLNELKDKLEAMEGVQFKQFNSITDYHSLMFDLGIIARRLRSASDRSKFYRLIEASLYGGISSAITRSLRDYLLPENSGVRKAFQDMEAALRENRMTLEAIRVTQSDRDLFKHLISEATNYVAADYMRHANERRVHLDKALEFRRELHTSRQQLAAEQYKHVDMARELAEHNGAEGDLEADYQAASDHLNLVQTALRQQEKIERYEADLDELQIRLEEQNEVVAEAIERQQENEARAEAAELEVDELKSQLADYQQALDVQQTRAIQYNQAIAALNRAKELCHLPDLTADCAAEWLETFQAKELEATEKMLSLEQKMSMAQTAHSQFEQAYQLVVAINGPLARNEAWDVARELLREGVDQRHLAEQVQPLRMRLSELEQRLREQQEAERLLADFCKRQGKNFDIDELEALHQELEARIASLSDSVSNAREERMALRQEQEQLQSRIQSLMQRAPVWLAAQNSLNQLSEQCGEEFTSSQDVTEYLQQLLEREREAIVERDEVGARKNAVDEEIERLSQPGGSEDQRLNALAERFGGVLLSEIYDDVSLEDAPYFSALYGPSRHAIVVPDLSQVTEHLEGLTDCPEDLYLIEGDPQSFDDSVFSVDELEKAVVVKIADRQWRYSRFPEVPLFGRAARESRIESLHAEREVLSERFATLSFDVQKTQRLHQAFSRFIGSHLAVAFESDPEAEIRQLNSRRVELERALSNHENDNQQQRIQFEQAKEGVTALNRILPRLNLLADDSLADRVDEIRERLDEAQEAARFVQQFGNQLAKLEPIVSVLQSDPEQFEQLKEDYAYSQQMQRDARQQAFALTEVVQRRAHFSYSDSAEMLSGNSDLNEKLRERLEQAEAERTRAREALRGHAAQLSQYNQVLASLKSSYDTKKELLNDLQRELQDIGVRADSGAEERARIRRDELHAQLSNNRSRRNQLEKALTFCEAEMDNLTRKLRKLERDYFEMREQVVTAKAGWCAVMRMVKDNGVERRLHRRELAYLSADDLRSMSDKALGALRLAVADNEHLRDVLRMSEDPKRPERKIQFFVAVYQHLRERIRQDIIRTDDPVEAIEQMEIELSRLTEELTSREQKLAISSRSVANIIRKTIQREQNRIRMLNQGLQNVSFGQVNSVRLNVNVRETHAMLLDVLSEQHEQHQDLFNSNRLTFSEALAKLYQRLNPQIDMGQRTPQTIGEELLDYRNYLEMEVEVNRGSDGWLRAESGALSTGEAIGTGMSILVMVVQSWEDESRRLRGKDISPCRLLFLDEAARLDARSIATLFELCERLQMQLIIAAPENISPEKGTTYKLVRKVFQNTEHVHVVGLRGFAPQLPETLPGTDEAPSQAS
Assay: SEC

B1: E. coli MukEF complex (complex)
chain 1: MSSTNIEQVMPVKLAQALANPLFPALDSALRSGRHIGLDELDNHAFLMDFQEYLEEFYARYNVELIRAPEGFFYLRPRSTTLIPRSVLSELDMMVGKILCYLYLSPERLANEGIFTQQELYDELLTLADEAKLLKLVNNRSTGSDVDRQKLQEKVRSSLNRLRRLGMVWFMGHDSSKFRITESVFRFGADVRAGDDPREAQRRLIRDGEAMPIENHLQLNDETEENQPDSGEEE
chain 2: MSEFSQTVPELVAWARKNDFSISLPVDRLSFLLAVATLNGERLDGEMSEGELVDAFRHVSDAFEQTSETIGVRANNAINDMVRQRLLNRFTSEQAEGNAIYRLTPLGIGITDYYIRQREFSTLRLSMQLSIVAGELKRAADAAEEGGDEFHWHRNVYAPLKYSVAEIFDSIDLTQRLMDEQQQQVKDDIAQLLNKDWRAAISSCELLLSETSGTLRELQDTLEAAGDKLQANLLRIQDATMTHDDLHFVDRLVFDLQSKLDRIISWGQQSIDLWIGYDRHVHKFIRTAIDMDKNRVFAQRLRQSVQTYFDEPWALTYANADRLLDMRDEEMALRDEEVTGELPEDLEYEEFNEIREQLAAIIEEQLAVYKTRQVPLDLGLVVREYLSQYPRARHFDVARIVIDQAVRLGVAQADFTGLPAKWQPINDYGAKVQAHVIDKY
- binding result: binds
